Experiment [1] concerns the target T1, MET-Fc (extracellular MET domain fused with human IgG1-Fc) (human, UniProt P08581 25-932).
T1 construct: extracellular domain; Recombinant chimera; also called recombinant extracellular MET-Fc chimera; hMET-Fc; not shown: human IgG1 Fc
Description: AlphaScreen saturation assay: NB on streptavidin donor beads, MET-Fc on Protein A acceptor beads. On the procedure:
(§1) FIG. 4. K1B and NB MET binding properties. (a) Structure of NK1 dimer (center, PDB 1BHT) and spatial relative orientation of each N (left) and K1 (right) monomers within the dimer. Dashed arrows indicate distances between subdomain C-termini. (b) NB, K1B and MET-Fc binding assay. Increasing concentrations of NB or K1B were mixed with extracellular MET domain fused with human IgG1-Fc (MET-Fc), and incubated with streptavidin AlphaScreen donor beads and Protein A acceptor beads. Error bars correspond to standard error (+/−SD) of triplicates. (c) Endogenous MET capture. Streptavidin coated beads loaded with NB or K1B were incubated with HeLa or Capan-1 total cell lysates. Input, flow-through and elution fractions from NB or K1 loaded beads were analyzed by specific total MET western blot.
(§2) The binding of K1B/S complexes to MET was examined using AlphaScreen technology. K1B was loaded on streptavidin-coated donor beads and incubated with recombinant extracellular MET-Fc chimera loaded on Protein A-coated acceptor beads. If K1B/S donor beads interact with MET-Fc/Protein A acceptor beads, a chemical energy transfer is possible between the beads, leading to fluorescence emission upon laser excitation. […]
(Bead proximity is the source of the signal in Alpha formats.)

Experiment [2] concerns the target T2, endogenous MET receptor of human cells (HeLa, Capan-1) (human, UniProt P08581 25-1390).
T2 construct: whole, on cells; On living HeLa cells in the signalling assays; from whole cell lysates of HeLa or Capan-1 cells in the capture experiment; also called tyrosine kinase receptor MET
Description: pull-down of endogenous MET from HeLa and Capan-1 total cell lysates on streptavidin beads loaded with NB, total MET western blot. As for the experimental part:
as §1
HeLa and Capan-1 cells were collected by scraping and then lysed on ice with a lysis buffer (20 mM Tris HCl, 50 mM NaCl, 5 mM EDTA and 1% Triton X-100). Lysates were clarified by centrifugation (20,000 g×15 min) and protein concentration was determined (BCA protein assay Kit, Pierce®, Thermo scientific, IL, USA). Streptavidin-Sepharose beads (GE Healthcare) were washed and equilibrated in PBS. Beads were loaded with 15 μg K1B or NB (100 μl beads in a 50:50 PBS:bead slurry) for 20 min at room temperature and immediately washed with PBS. […] Elution fractions were then analyzed by western blotting.
For orientation: A western blot detects proteins with antibodies after separation by electrophoresis.

In experiment [3] the target is T1, MET-Fc (extracellular MET domain fused …). In words: AlphaScreen saturation assay; the reference is a literature value that is not given. As for the experimental part: as §1, with “Dashed” for “FIG. 4. K1B and NB MET binding properties. (a) Structure of NK1 dimer (center, PDB 1BHT) and spatial relative orientation of each N (left) and K1 (right) monomers within the dimer. Dashed”
The binding of K1B/S complexes to MET was examined using AlphaScreen technology. K1B was loaded on streptavidin-coated donor beads and incubated with recombinant extracellular MET-Fc chimera loaded on Protein A-coated acceptor beads. If K1B/S donor beads interact with MET-Fc/Protein A acceptor beads, a chemical energy transfer is possible between the beads, leading to fluorescence emission upon laser excitation. […] Since the bead-based AlphaScreen assay can generate avidity and thus introduce a bias in the estimation of the apparent KD in saturation experiments, it was performed the reciprocal competition assay by adding increasing concentrations of preformed K1B/S complex (2:1 molar ratio) into the K1B/MET-Fc/AlphaScreen bead mixture (FIG. 6). […]

The target is the same in experiment [4]. In words: AlphaScreen saturation assay: K1B on streptavidin donor beads, MET-Fc on Protein A acceptor beads. On the procedure: as §1, §2
For experiment [5] the target is unchanged. Description: AlphaScreen saturation assay: K1B on streptavidin-coated donor beads, MET-Fc on Protein A-coated acceptor beads (apparent, multivalent display); saturation assay; K1B on streptavidin-coated donor beads (apparent KD, avidity possible). As for the experimental part: as §1, §2

T1 sequence (P08581 25-932): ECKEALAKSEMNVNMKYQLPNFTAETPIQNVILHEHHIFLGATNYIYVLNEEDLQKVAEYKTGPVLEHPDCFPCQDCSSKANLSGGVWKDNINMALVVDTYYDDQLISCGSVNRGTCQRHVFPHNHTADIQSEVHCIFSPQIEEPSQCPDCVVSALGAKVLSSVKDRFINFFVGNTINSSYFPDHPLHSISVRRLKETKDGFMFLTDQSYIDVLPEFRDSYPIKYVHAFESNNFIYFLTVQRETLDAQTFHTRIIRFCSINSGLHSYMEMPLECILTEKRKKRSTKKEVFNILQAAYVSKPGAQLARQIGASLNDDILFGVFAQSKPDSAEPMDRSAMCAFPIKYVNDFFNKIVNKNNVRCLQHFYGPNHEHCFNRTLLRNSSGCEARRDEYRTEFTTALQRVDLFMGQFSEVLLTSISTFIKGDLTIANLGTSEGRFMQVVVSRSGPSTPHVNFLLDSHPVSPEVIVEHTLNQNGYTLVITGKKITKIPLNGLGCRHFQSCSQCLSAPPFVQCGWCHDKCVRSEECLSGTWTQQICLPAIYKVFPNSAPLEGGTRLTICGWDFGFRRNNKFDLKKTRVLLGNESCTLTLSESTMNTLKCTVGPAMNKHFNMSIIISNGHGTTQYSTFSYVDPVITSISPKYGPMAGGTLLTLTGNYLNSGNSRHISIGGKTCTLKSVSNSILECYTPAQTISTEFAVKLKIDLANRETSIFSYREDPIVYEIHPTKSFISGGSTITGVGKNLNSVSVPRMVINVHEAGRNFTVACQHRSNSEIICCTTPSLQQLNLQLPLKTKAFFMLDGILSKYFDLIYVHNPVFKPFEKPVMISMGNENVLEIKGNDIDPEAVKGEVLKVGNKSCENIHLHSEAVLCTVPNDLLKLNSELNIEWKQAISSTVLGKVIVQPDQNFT
T2 sequence (P08581 25-1390): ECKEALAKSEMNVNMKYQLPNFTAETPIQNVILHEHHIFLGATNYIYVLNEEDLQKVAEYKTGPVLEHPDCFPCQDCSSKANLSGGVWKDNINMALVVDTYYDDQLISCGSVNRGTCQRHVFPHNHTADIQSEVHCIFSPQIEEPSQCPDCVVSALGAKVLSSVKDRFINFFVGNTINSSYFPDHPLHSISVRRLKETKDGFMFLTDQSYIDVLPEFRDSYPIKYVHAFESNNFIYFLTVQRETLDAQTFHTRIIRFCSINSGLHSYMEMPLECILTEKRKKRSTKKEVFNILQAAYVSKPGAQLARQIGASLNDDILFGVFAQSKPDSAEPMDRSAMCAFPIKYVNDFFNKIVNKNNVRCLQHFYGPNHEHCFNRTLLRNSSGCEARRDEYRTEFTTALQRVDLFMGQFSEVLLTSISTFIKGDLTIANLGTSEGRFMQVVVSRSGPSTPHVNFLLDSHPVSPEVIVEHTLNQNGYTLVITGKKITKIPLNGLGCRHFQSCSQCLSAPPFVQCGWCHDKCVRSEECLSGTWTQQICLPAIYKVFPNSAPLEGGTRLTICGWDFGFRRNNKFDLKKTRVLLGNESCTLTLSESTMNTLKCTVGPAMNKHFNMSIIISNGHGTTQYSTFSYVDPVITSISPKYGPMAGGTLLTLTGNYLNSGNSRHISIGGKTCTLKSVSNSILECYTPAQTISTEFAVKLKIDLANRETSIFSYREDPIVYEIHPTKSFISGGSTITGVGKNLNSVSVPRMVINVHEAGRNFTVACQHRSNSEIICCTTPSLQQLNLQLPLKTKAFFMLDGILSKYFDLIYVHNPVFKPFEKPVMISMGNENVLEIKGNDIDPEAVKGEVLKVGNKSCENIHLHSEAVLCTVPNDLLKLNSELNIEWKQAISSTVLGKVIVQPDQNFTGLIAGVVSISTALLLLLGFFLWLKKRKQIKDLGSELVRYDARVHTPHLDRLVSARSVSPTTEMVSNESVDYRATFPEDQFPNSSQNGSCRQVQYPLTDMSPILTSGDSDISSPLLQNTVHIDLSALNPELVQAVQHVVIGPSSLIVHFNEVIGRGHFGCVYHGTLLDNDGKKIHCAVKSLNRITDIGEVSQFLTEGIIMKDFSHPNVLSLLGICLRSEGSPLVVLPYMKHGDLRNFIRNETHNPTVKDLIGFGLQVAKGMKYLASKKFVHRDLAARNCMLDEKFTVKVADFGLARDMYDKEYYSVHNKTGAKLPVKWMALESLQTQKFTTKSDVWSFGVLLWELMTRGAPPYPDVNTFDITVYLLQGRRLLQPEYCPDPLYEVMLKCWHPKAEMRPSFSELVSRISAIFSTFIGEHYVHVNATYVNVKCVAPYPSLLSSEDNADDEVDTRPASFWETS

B1: NB (ligand, human, UniProt P14210 31-127, looked up)
single chain: GQRKRRNTIHEFKKSAKTTLIKIDPALKIKTKKVNTADQCANRCTRNKGLPFTCKAFVFDKARKQCLWFPFNSMSSGVKKEFGHEFDLYENKDYIRN
modifications: biotinylated; the site is not stated for NB
notes: isolated N domain, chemically synthesised and biotinylated, not pre-mixed with soluble streptavidin; It is distinct from m9, the NB/S complex pre-mixed 2:1 with streptavidin; In both assays NB is presented on streptavidin-coated beads; also called biotinylated N domain of HGF/SF
As to B1, the binding result in experiment [1] is given as “no binding (tested: 300 nM)”; in experiment [2], “no binding”.

B2: K1B (biotinylated K1 domain of HGF/SF, residues 125-209 with C-terminal GGK(biotin) extension) (ligand)
chain: IRNCIIGKGRSYKGTVSITKSGIKCQPWSSMIPHEHSFLPSSYRGKDLQENYCRNPRGEEGGPWCFTSNPEVRYEVCDIPQCSEVGGK
modifications: C-terminal lysine of the GGK extension modified on its side chain with a biotin group; three native disulfide bonds
notes: also called K1-Biot; biotinylated version of the K1 domain
Regarding B2, the “fold lower apparent KD than the KD reported for monomeric K1 protein-MET interaction” value in experiment [3] was roughly 100 fold. Besides, in experiment [4], the EC50 (read off the curve) (as a rule, the concentration that produces a half-maximal response) is roughly 20 nM. Further, in experiment [5], the Kd is roughly 16 nM.

The record behind these values is US20180008723A1 (UNIVERSITE DES SCIENCES ET TECHNOLOGIES DE LILLE LILLE 1, published 2018).
